B1: CPEB3 Ribozyme (parent)
chain: GGGGGCCACAGCAGAAGCGUUCACGUCGCGGCCCCUGUCAGAUUCUGGUGAAUCUGCGAAUUCUGCUGU

Variants of: B1
Experiment: self-cleavage, relative activity (ratio to wild type); higher = more cleavage; co-transcriptional

Variant | self-cleavage
GGGGGCCACAGCAGAAGCGUUCACGUCGCGGCCCCUGUCAGAUUCUGGUGAAGCUGCGAAGUCUGCUGU | 0.681
GGGGGCCACAGCAGAAGCGUUCACGUCGCGGCCCCUGUCAGAUUCUGGUGAAGCUGCGAAAUCUGCUGU | 0.706
GGGGGCCACAGCAGAAGCGUUCACGUCGCGGCCCCUGUCAGAUUCUGGUGAAUAUGCGAAUUCUGCUGU | 0.944
GGGGGCCACAGCAGAAGCGUUCACGUCGCGGCCCCUGUCAGAUUCUGGUGAACCUGCAAAUUCUGCUGU | 0.85
GGGGGCCACAGCAGAAGCGUUCACGUCGCGGCCCCUGUCAGAUUCUGGUGAACCUGCCAAUUCUGCUGU | 0.94
GGGGGCCACAGCAGAAGCGUUCACGUCGCGGCCCCUGUCAGAUUCUGGUGAAUAUGCGAAUUUUGCUGU | 0.796
GGGGGCCACAGCAGAAGCGUUCACGUCGCGGCCCCUGUCAGAUUCUGGUGAAUAUGCGAAUUGUGCUGU | 0.445
GGGGGCCACAGCAGAAGCGUUCACGUCGCGGCCCCUGUCAGAUUCUGGUGAAUAUGCGAAUUAUGCUGU | 0.538
GGGGGCCACAGCAGAAGCGUUCACGUCGCGGCCCCUGUCAGAUUCUGGUGAAGCUGAGAAUUCUGCUGU | 0.327
GGGGGCCACAGCAGAAGCGUUCACGUCGCGGCCCCUGUCAGAUUCUGGUGAAGCUGUGAAUUCUGCUGU | 0.311
GGGGGCCACAGCAGAAGCGUUCACGUCGCGGCCCCUGUCAGAUUCUGGUGAACCUGCGAAUUGUGCUGU | 0.451
GGGGGCCACAGCAGAAGCGUUCACGUCGCGGCCCCUGUCAGAUUCUGGUGAACCUGCGAAUUAUGCUGU | 0.402
GGGGGCCACAGCAGAAGCGUUCACGUCGCGGCCCCUGUCAGAUUCUGGUGAACCUACGAAUUCUGCUGU | 0.539
GGGGGCCACAGCAGAAGCGUUCACGUCGCGGCCCCUGUCAGAUUCUGGUGAACCUCCGAAUUCUGCUGU | 0.39
GGGGGCCACAGCAGAAGCGUUCACGUCGCGGCCCCUGUCAGAUUCUGGUGAACCUGCGAAUACUGCUGU | 0.549
GGGGGCCACAGCAGAAGCGUUCACGUCGCGGCCCCUGUCAGAUUCUGGUGAACCUGCGAAUGCUGCUGU | 0.384
GGGGGCCACAGCAGAAGCGUUCACGUCGCGGCCCCUGUCAGAUUCUGGUGAAGCUGCCAAUUCUGCUGU | 0.847
GGGGGCCACAGCAGAAGCGUUCACGUCGCGGCCCCUGUCAGAUUCUGGUGAAGCUGCUAAUUCUGCUGU | 0.939
GGGGGCCACAGCAGAAGCGUUCACGUCGCGGCCCCUGUCAGAUUCUGGUGAAUAUGCGAAUUCUGAUGU | 0.45
GGGGGCCACAGCAGAAGCGUUCACGUCGCGGCCCCUGUCAGAUUCUGGUGAAUAUGCGAAUUCUGUUGU | 0.911

Variant | self-cleavage
GGGGGCCACAGCAGAAGCGUUCACGUCGCGGCCCCUGUCAGAUUCUGGUGAACAUGCGAAUUCUGCUGU | 0.506
GGGGGCCACAGCAGAAGCGUUCACGUCGCGGCCCCUGUCAGAUUCUGGUGAACGUGCGAAUUCUGCUGU | 0.424
GGGGGCCACAGCAGAAGCGUUCACGUCGCGGCCCCUGUCAGAUUCUGGUGAACCUGCGAAUUCUGCUAU | 0.977
GGGGGCCACAGCAGAAGCGUUCACGUCGCGGCCCCUGUCAGAUUCUGGUGAACCUGCGAAUUCUGCUUU | 0.986
GGGGGCCACAGCAGAAGCGUUCACGUCGCGGCCCCUGUCAGAUUCUGGUGAACCUGCGAAUUCUGCUCU | 1.02
GGGGGCCACAGCAGAAGCGUUCACGUCGCGGCCCCUGUCAGAUUCUGGUGAAGUUGCGAAUUCUGCUGU | 0.815
GGGGGCCACAGCAGAAGCGUUCACGUCGCGGCCCCUGUCAGAUUCUGGUGAAGGUGCGAAUUCUGCUGU | 0.673
GGGGGCCACAGCAGAAGCGUUCACGUCGCGGCCCCUGUCAGAUUCUGGUGAAUAUGCGAGUUCUGCUGU | 0.584
GGGGGCCACAGCAGAAGCGUUCACGUCGCGGCCCCUGUCAGAUUCUGGUGAAUAUGCGAUUUCUGCUGU | 0.308
GGGGGCCACAGCAGAAGCGUUCACGUCGCGGCCCCUGUCAGAUUCUGGUGAAGCUGCGCAUUCUGCUGU | 0.422
GGGGGCCACAGCAGAAGCGUUCACGUCGCGGCCCCUGUCAGAUUCUGGUGAAGCUGCGGAUUCUGCUGU | 0.894
GGGGGCCACAGCAGAAGCGUUCACGUCGCGGCCCCUGUCAGAUUCUGGUGAACCUGCGAAUUCGGCUGU | 0.535
GGGGGCCACAGCAGAAGCGUUCACGUCGCGGCCCCUGUCAGAUUCUGGUGAACCUGCGAAUUCCGCUGU | 0.536
GGGGGCCACAGCAGAAGCGUUCACGUCGCGGCCCCUGUCAGAUUCUGGUGAACCUGCGAAUUCAGCUGU | 0.525
GGGGGCCACAGCAGAAGCGUUCACGUCGCGGCCCCUGUCAGAUUCUGGUGAAGCUGCGAAUUCUGCUGU | 0.927
GGGGGCCACAGCAGAAGCGUUCACGUCGCGGCCCCUGUCAGAUUCUGGUGAACCUGCGAAUUCUGCUGU | 0.947
GGGGGCCACAGCAGAAGCGUUCACGUCGCGGCCCCUGUCAGAUUCUGGUGAAUAUGGGAAUUCUGCUGU | 0.338
GGGGGCCACAGCAGAAGCGUUCACGUCGCGGCCCCUGUCAGAUUCUGGUGAAUAUGUGAAUUCUGCUGU | 0.377
GGGGGCCACAGCAGAAGCGUUCACGUCGCGGCCCCUGUCAGAUUCUGGUGAAUAUGAGAAUUCUGCUGU | 0.378
